A short description of the series: self-splicing fitness, log relative to wild type (ln ratio); higher = more splicing; Tetrahymena group I intron in knt gene, E. coli kanamycin selection, DiMSum; sequences stand for … in CUCUCU…GGAGGGAAAAGUUAUCAGGCAUGCACCUGGUAGCUAGUCUUUAAACCAAUAGAUUGCAUCGGUUUAAAAGGCAAGACCGUCAAAUUGCGGGAAAGGGGUCAACAGCCGUUCAGUACCAAGUCUCAGGGGAAACUUUGAGAUGGCCUUGCAAAGGGUAUGGUAAUAAGCUGACGGACAUGGUCCUAACCACGCAGCCAAGUCCUAAGUCAACAGAUCUUCUGUUGAUAUGGAUGCAGUUCACAGACUAAAUGUCGGUCGGGGAAGAUGUAUUCUUCUCAUAAGAUAUAGUCGGACCUCUCCUUAAUGGGAGCUAGCGGAUGAAGUGAUGCAACACUGGAGCCGCUGGGAACUAAUUUGUAUGCGAAAGUAUAUUGAUUAGUUUUGGAGUACUCGUGGUCG
Summed up: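 Six replicate transformations of E. coli BL21(DE3) with a pET-22b(+) library were grown overnight at 37°C or 30°C. The library randomised all eight P1ex-region intron nucleotides, the intron lying in the knt kanamycin-resistance gene, and plates were LB agar with or without 25 μg/mL kanamycin plus 100 μg/mL carbenicillin, 50 μM IPTG and 0.2% rhamnose. Pooled colonies were amplicon-sequenced on an Illumina HiSeq 2500, and fitness is the DiMSum error-weighted combination of wild-type-normalised replicate fold changes, kanamycin versus none.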

Consider 38 sequences from the supplement of paper PMC7877785.

± gives the uncertainty stated by the source.

With AGGUAGCAAUAUUACGACGU, the “self-splicing fitness (ln)” value is 0.156 ± 0.014 (30 °C) and 0.233 ± 0.033 (37 °C).
In the case of UUGGAGCAAUAUUACGCCUG, the “self-splicing fitness (ln)” value (30 °C) was -2.22 ± 0.2 and the “self-splicing fitness (ln)” value (37 °C) was -1.2 ± 0.23.
For AACCAGCAAUAUUACGAUGC, the “self-splicing fitness (ln)” value was -1.49 ± 0.076 (30 °C) and -0.673 ± 0.082 (37 °C).
As for GUAGAGCAAUAUUACGCCGG, the “self-splicing fitness (ln)” value reads like this: (30 °C) -1.41 ± 0.21; (37 °C) -0.336 ± 0.47.
For the sequence CGCUAGCAAUAUUACGCGGA, the “self-splicing fitness (ln)” value reads like this: (30 °C) -3.21 ± 0.17; (37 °C) -1.73 ± 0.099.
In the case of AUACAGCAAUAUUACGGUAC, the “self-splicing fitness (ln)” value is -4.13 ± 0.3 (30 °C) and -2.2 ± 0.18 (37 °C).
GGAUAGCAAUAUUACGCUGG: the “self-splicing fitness (ln)” value (30 °C) is -2.25 ± 0.15 and the “self-splicing fitness (ln)” value (37 °C) was -1.05 ± 0.18.
For ACAGAGCAAUAUUACGAGUC, in that order: -4.65 ± 0.38 and -1.82 ± 0.27.
Take UACCAGCAAUAUUACGUCCG: the “self-splicing fitness (ln)” value reads like this: (30 °C) -0.95 ± 0.058; (37 °C) -0.0389 ± 0.083.
For UCAAAGCAAUAUUACGCCCC, in that order: -2.12 ± 0.39 and -1.54 ± 0.37.
For GACUAGCAAUAUUACGGGCA, in that order: -0.911 ± 0.072 and 0.2 ± 0.085.
With AGGUAGCAAUAUUACGAUGA, the “self-splicing fitness (ln)” value reads like this: (30 °C) -0.948 ± 0.016; (37 °C) -0.562 ± 0.034.
As for GUCCAGCAAUAUUACGGGAA, the “self-splicing fitness (ln)” value by setting is: (30 °C) -0.0663 ± 0.071; (37 °C) -0.474 ± 0.077.
In the case of AUUAAGCAAUAUUACGGAGA, the “self-splicing fitness (ln)” value (30 °C) was -2.53 ± 0.19 and the “self-splicing fitness (ln)” value (37 °C) was -3.25 ± 0.32.
For CGUUAGCAAUAUUACGUGAG, in that order: -1.59 ± 0.087 and -0.0698 ± 0.13.
For CUUAAGCAAUAUUACGGAGU, in that order: -2.92 ± 0.099 and -2.31 ± 0.12.
For the sequence CAAGAGCAAUAUUACGCUUG, the “self-splicing fitness (ln)” value (37 °C) is -2.99 ± 0.47.
For CCCGAGCAAUAUUACGCUGC, the “self-splicing fitness (ln)” value by setting is: (30 °C) -2.93 ± 0.21; (37 °C) -2.63 ± 0.3.
For GACGAGCAAUAUUACGAUUA, in that order: -2.73 ± 0.23 and -1.55 ± 0.22.
For GAGCAGCAAUAUUACGUCGA, in that order: -1.51 ± 0.12 and -0.741 ± 0.12.
Turning to AUGUAGCAAUAUUACGCUGG, the “self-splicing fitness (ln)” value reads like this: (30 °C) -3.03 ± 0.14; (37 °C) -1.92 ± 0.16.
In the case of CAAUAGCAAUAUUACGAAAU, the “self-splicing fitness (ln)” value (30 °C) is -3.12 ± 0.15 and the “self-splicing fitness (ln)” value (37 °C) was -2.42 ± 0.23.
With GACUAGCAAUAUUACGCCCG, the “self-splicing fitness (ln)” value reads like this: (30 °C) -1.77 ± 0.24; (37 °C) -0.58 ± 0.28.
For GGACAGCAAUAUUACGCUAG, in that order: -1.85 ± 0.13 and -0.798 ± 0.17.
For CAUUAGCAAUAUUACGCUCG, in that order: -0.328 ± 0.11 and 0.302 ± 0.13.
For AAGCAGCAAUAUUACGUCCU, in that order: -0.341 ± 0.081 and -0.442 ± 0.094.
Take UAGAAGCAAUAUUACGUGAA: the “self-splicing fitness (ln)” value is -2.05 ± 0.07 (30 °C) and -1.5 ± 0.092 (37 °C).
As for CCUAAGCAAUAUUACGUGAA, the “self-splicing fitness (ln)” value (37 °C) is -1.96 ± 0.26.
Regarding AUACAGCAAUAUUACGUUAG, the “self-splicing fitness (ln)” value reads like this: (30 °C) -3.13 ± 0.15; (37 °C) -2.12 ± 0.17.
On to AUUGAGCAAUAUUACGCAUU, for which the “self-splicing fitness (ln)” value (30 °C) is -2.64 ± 0.23 and the “self-splicing fitness (ln)” value (37 °C) is -1.49 ± 0.18.
For GCCGAGCAAUAUUACGCUCU, in that order: -0.992 ± 0.2 and -0.494 ± 0.21.
As for GCGCAGCAAUAUUACGUAUG, the “self-splicing fitness (ln)” value is, setting by setting: (30 °C) -3.67 ± 0.23; (37 °C) -1.8 ± 0.21.
For UUCUAGCAAUAUUACGCCUU, in that order: -3.43 ± 0.21 and -2.57 ± 0.15.
For the sequence CCGAAGCAAUAUUACGCACU, the “self-splicing fitness (ln)” value reads like this: (30 °C) -2.98 ± 0.26; (37 °C) -2.68 ± 0.44.
For AUAGAGCAAUAUUACGCGUA, in that order: -0.662 ± 0.1 and -0.524 ± 0.13.
AGUGAGCAAUAUUACGCAGA: the “self-splicing fitness (ln)” value (37 °C) is -1.35 ± 0.28.
Regarding AUAUAGCAAUAUUACGCGCG, the “self-splicing fitness (ln)” value by setting is: (30 °C) -0.915 ± 0.12; (37 °C) -0.503 ± 0.15.
Turning to ACUCAGCAAUAUUACGGUUC, the “self-splicing fitness (ln)” value (30 °C) was -2.68 ± 0.14 and the “self-splicing fitness (ln)” value (37 °C) was -2.33 ± 0.14.
